How the values were obtained:
[1] = biological target: BCMA-CAR (CAR with the CT103A scFv) on cells; assay: flow cytometry, AF647-labelled antibody on BCMA-CAR-Jurkat cells; first series, 2-fold dilution step 9 of 10; set-up: scale not given here
[2] = biological target: CT103A scFv; assay: competition ELISA, antibody at 1000 ng/ml pre-incubated with biotin-CT103A scFv; competitor: coated BCMA
[3] = biological target: BCMA-CAR (CAR with the CT103A scFv) on cells; assay: flow cytometry, AF647-labelled antibody on BCMA-CAR-Jurkat cells; SECOND series, also printed as 12F1 (possibly 6G8), step 8 of 10; set-up: scale not given here
[4] = biological target: BCMA-CAR (CAR with the CT103A scFv) on cells; assay: flow cytometry, AF647-labelled antibody on BCMA-CAR-Jurkat cells; first series, 2-fold dilution step 6 of 10; set-up: scale not given here
[5] = biological target: BCMA-CAR (CAR with the CT103A scFv) on cells; assay: flow cytometry, AF647-labelled antibody on BCMA-CAR-Jurkat cells; SECOND series, also printed as 12F1 (possibly 6G8), step 7 of 10; set-up: scale not given here
[6] = biological target: BCMA-CAR (CAR with the CT103A scFv) on cells; assay: flow cytometry, AF647-labelled antibody on BCMA-CAR-Jurkat cells; first series, 2-fold dilution step 3 of 10; set-up: scale not given here
[7] = biological target: BCMA-CAR (CAR with the CT103A scFv) on cells; assay: flow cytometry, AF647-labelled antibody on BCMA-CAR-Jurkat cells; SECOND series, also printed as 12F1 (possibly 6G8), step 10 of 10 (lowest); set-up: scale not given here
[8] = biological target: BCMA-CAR (CAR with the CT103A scFv) on cells; assay: flow cytometry, AF647-labelled antibody on BCMA-CAR-Jurkat cells; first series, 2-fold dilution step 2 of 10; set-up: scale not given here
[9] = biological target: BCMA-CAR (CAR with the CT103A scFv) on cells; assay: flow cytometry, AF647-labelled antibody on BCMA-CAR-Jurkat cells; SECOND series, also printed as 12F1 (possibly 6G8), step 2 of 10; set-up: scale not given here
[10] = biological target: BCMA-CAR (CAR with the CT103A scFv) on cells; assay: flow cytometry, AF647-labelled antibody on BCMA-CAR-Jurkat cells; SECOND series, also printed as 12F1 (possibly 6G8), step 5 of 10; set-up: scale not given here
[11] = biological target: BCMA-CAR (CAR with the CT103A scFv) on cells; assay: flow cytometry, AF647-labelled antibody on BCMA-CAR-Jurkat cells; first series, 2-fold dilution step 1 of 10 (highest); negative control MFI 0.18; set-up: scale not given here
[12] = biological target: BCMA-CAR (CAR with the CT103A scFv) on cells; assay: flow cytometry, AF647-labelled antibody on BCMA-CAR-Jurkat cells; first series, 2-fold dilution step 8 of 10; set-up: scale not given here
[13] = biological target: BCMA-CAR (CAR with the CT103A scFv) on cells; assay: flow cytometry, AF647-labelled antibody on BCMA-CAR-Jurkat cells; SECOND series, also printed as 12F1 (possibly 6G8), step 6 of 10; set-up: scale not given here
[14] = biological target: BCMA-CAR (CAR with the CT103A scFv) on cells; assay: flow cytometry, AF647-labelled antibody on BCMA-CAR-Jurkat cells; first series, 2-fold dilution step 10 of 10 (lowest); set-up: scale not given here
[15] = biological target: BCMA-CAR (CAR with the CT103A scFv) on cells; assay: flow cytometry, AF647-labelled antibody on BCMA-CAR-Jurkat cells; first series, 2-fold dilution step 5 of 10; set-up: scale not given here
[16] = biological target: CT103A scFv; assay: competition ELISA, antibody at 500 ng/ml pre-incubated with biotin-CT103A scFv; competitor: coated BCMA
[17] = biological target: BCMA-CAR (CAR with the CT103A scFv) on cells; assay: flow cytometry, AF647-labelled antibody on BCMA-CAR-Jurkat cells; SECOND series, also printed as 12F1 (possibly 6G8), step 4 of 10; set-up: scale not given here
[18] = biological target: BCMA-CAR (CAR with the CT103A scFv) on cells; assay: flow cytometry, AF647-labelled antibody on BCMA-CAR-Jurkat cells; first series, 2-fold dilution step 7 of 10; set-up: scale not given here
[19] = biological target: BCMA-CAR (CAR with the CT103A scFv) on cells; assay: flow cytometry, AF647-labelled antibody on BCMA-CAR-Jurkat cells; SECOND series, also printed as 12F1 (possibly 6G8), 2-fold dilution step 1 of 10 (highest); set-up: scale not given here
[20] = biological target: BCMA-CAR (CAR with the CT103A scFv) on cells; assay: flow cytometry, AF647-labelled antibody on BCMA-CAR-Jurkat cells; SECOND series, also printed as 12F1 (possibly 6G8), step 9 of 10; set-up: scale not given here
[21] = biological target: BCMA-CAR (CAR with the CT103A scFv) on cells; assay: flow cytometry, AF647-labelled antibody on BCMA-CAR-Jurkat cells; SECOND series, also printed as 12F1 (possibly 6G8), step 3 of 10; set-up: scale not given here
[22] = biological target: BCMA-CAR (CAR with the CT103A scFv) on cells; assay: flow cytometry, AF647-labelled antibody on BCMA-CAR-Jurkat cells; first series, 2-fold dilution step 4 of 10; set-up: scale not given here

BCMA-CAR (CAR with the CT103A scFv) on cells, sequence (chain, as listed by the source): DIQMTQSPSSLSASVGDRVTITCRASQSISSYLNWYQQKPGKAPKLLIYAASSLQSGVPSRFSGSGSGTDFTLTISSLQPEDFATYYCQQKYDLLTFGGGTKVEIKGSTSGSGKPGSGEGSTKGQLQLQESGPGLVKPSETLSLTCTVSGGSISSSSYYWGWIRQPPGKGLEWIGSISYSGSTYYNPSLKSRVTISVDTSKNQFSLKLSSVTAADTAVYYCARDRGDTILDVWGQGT
CT103A scFv, sequence (scFv, as listed by the source): as the sequence (chain, as listed by the source) above

B1: 12F1 (antibody, V domains shown)
VH: QSLEESGGRLVTPGTPLTLTCTVSGFSLNSNAMGWVRQAPGKGLEYIGFIAAYGDTHNATWAKGRFTISKTSTTVDLKITSPTTEDTATYFCASTYGGDGGWYFNIWGPGTLVTVSE
VL: AFELTQTPSSVEAAVGGTVIIKCQASQNIVRYLSWYQQKPGQPPKLLIYEASNLASGVPSRFSGSGSGTEFTLTISDLECADAATYYCQSYYDAESFNTFGGGTEVVVKG
- MFI [1]: 1.53
- 信号抑制率 [2]: > 90%
- MFI [3]: 0.31
- MFI [4]: 7.73
- MFI [5]: 0.37
- MFI [6]: 15.3
- MFI [7]: 0.22
- MFI [8]: 15.3
- MFI [9]: 3.16
- MFI [10]: 0.81
- MFI [11]: 15.3
- MFI [12]: 2.83
- MFI [13]: 0.53
- MFI [14]: 0.94
- MFI [15]: 12.4
- 信号抑制率 [16]: > 90%
- MFI [17]: 1.28
- MFI [18]: 4.37
- MFI [19]: 4.66
- MFI [20]: 0.25
- MFI [21]: 1.98
- MFI [22]: 14.3
